PMC3059893 (Biochemistry, 2011)
Read-outs that look alike come from different tables or passages of the source.

B1: Tiam2 PDZ (protein)
chain: NVYDVQLTKTGSVCDFGFAVTAQVDERQHLSRIFISDVLPDGLAYGEGLRKGNEIMTLNGEAVSDLDLKQMEALFSEKSVGLTLIARPPDTKA
B2: Tiam1 PDZ (protein)
chain: VTQSIHIEKSDTAADTYGFSLSSVEEDGIRRLYVNSVKETGLASKKGLKAGDEILEINNRAADALNSSML

Columns and labels:
Syndecan1 (Homo sapiens) = assay: fluorescence anisotropy; conditions: cited from earlier work
Model peptide [1] = assay: NMR titration; conditions: cited from earlier work
Neurexin1 (Homo sapiens) = conditions: cited from earlier work
Tiam1 peptide 2 = molecular target: T1, Tiam1 peptide 2; assay: fluorescence anisotropy
T1 chain: YAAEKYWA

Tiam1 peptide 1 = molecular target: T2, Tiam1 peptide 1; assay: fluorescence anisotropy
T2 chain: YAAYRYRA

Tiam2 peptide 3 = molecular target: T3, Tiam2 peptide 3; assay: fluorescence anisotropy
T3 chain: YAALIHKF

Tiam1 peptide 3 = molecular target: T4, Tiam1 peptide 3; assay: fluorescence anisotropy
T4 chain: YAAKAFRF

Syndecan1 = molecular target: T5, Syndecan1 (Homo sapiens); assay: fluorescence anisotropy
T5 chain: TKQEEFYA

Caspr4 = molecular target: T6, Caspr4 (Homo sapiens); assay: fluorescence anisotropy
T6 chain: ENQKEYFF

Neurexin1 = molecular target: T7, Neurexin1 (Homo sapiens); assay: fluorescence anisotropy
T7 chain: NKDKEYYV

Tiam2 peptide 2 = molecular target: T8, Tiam2 peptide 2; assay: fluorescence anisotropy
T8 chain: YAAGRKHF

Model peptide [2] = molecular target: T9, Model peptide; assay: fluorescence anisotropy
T9 chain: SSRKEYYA

| Molecule | Kd (Syndecan1 (Homo sapiens)) [µM] | Kd (Model peptide [1]) [µM] | Kd (Neurexin1 (Homo sapiens)) [µM] | Kd (Tiam1 peptide 2) [µM] | Kd (Tiam1 peptide 1) [µM] | Kd (Tiam2 peptide 3) [µM] | Kd (Tiam1 peptide 3) [µM] | Kd (Syndecan1) [µM] | Kd (Caspr4) [µM] | Kd (Neurexin1) [µM] | Kd (Tiam2 peptide 2) [µM] | Kd (Model peptide [2]) [µM] |
| --- | --- | --- | --- | --- | --- | --- | --- | --- | --- | --- | --- | --- |
| Tiam1 PDZ (from UniProt Q13009) | 26.9 | 112 | 2400 | – | – | – | – | – | – | – | – | – |
| B1 | – | – | – | 10.9 | 22.5 | 28.7 | 7.7 | 200 | 3.4 | 5 | 9.9 | 24.1 |
| B2 | – | – | – | 90.3 | – | – | 200 | – | 19 | – | – | – |
